One data set addresses PhoP L113D (Mycobacterium tuberculosis, UniProt P71814 1-247, L113D). Put plainly: ITC; 5 mM MgCl2; ITC: 20 mM HEPES pH 7.5, 100 mM NaCl, 5 mM MgCl2, 25 C, […]. Particulars: protein: recombinant; tags: N-terminal His-tag removed with TEV; chain copies: 2.
The target of another data set is PhoP Y205A (Mycobacterium tuberculosis, UniProt P71814 1-247, Y205A). The data set is described as above. Particulars: protein: recombinant; tags: N-terminal His-tag removed with TEV; chain copies: 2.

B1: ahpC (dsDNA)
DNA 1: TTTGCCTGACAGCGACTTCACGGCACGATG
DNA 2: CATCGTGCCGTGAAGTCGCTGTCAGGCAAA
Turning to B1, the Kd (in general, the constant that tells how readily two partners part at equilibrium) with PhoP L113D worked out at 595 ± 51.4 nM; in the data set with PhoP Y205A it was 654 ± 57.2 nM.

B2: lpqA (dsDNA)
DNA 1: GCACCTTCACCGCCCGCCCACAGCCACGCA
DNA 2: TGCGTGGCTGTGGGCGGGCGGTGAAGGTGC
Take B2: the dissociation constant Kd with PhoP L113D stood at 2870 ± 541 nM; with PhoP Y205A it was 3080 ± 371 nM.

B3: DRs3 (3-bp spacer) (dsDNA)
DNA 1: AAGTACCTCACAGCACTTCACAGCTTTCAT
DNA 2: ATGAAAGCTGTGAAGTGCTGTGAGGTACTT
In the case of B3, the Kd in the data set with PhoP L113D is 368 ± 52.2 nM.

B4: hisG (dsDNA)
DNA 1: CGCGACCCGCAGCATGCTCACAGCTTTCGA
DNA 2: TCGAAAGCTGTGAGCATGCTGCGGGTCGCG
Take B4: the Kd with PhoP L113D came out at 117 ± 11.7 nM; with PhoP Y205A, 114 ± 11.2 nM.

B5: DR (dsDNA)
DNA 1: ACGATTCACAGCTGATTCACAGCATCTACG
DNA 2: CGTAGATGCTGTGAATCAGCTGTGAATCGT
For B5, the Kd with PhoP L113D was 26.2 ± 6.5 nM; in the data set with PhoP Y205A it was 21.8 ± 6.2 nM.

The record behind these values is paper PMC4832192, “Structural basis of DNA sequence recognition by the response regulator PhoP in Mycobacterium tuberculosis”.
